Residue numbers refer to the chain shown, from its start. Names may count otherwise. Values belong to the binder of their own block, whether it stands above or below them.
Biological target: T1, PD-L1 on the surface of murine cells (MC38, B16, wild-type DC 2.4) (murine, UniProt Q9EP73 19-290)
T1 construct: whole, on cells; also called PD-L1 antigen; Cd274 gene product
Assay: FACS on MC38 cells, FITC-labeled goat anti-human secondary antibody
Description: A. The histograms of different colors represent, from top to bottom, the fluorescence signals measured for the negative control (NC) group, the secondary antibody group, the anti-PD-L1 antibody group, the anti-PD-L1 THIOMAB group, and the ADC HE-S2 group, respectively. B. Mean fluorescence intensity (MFI) measured after treatment with different antibody-based drugs on MC38. NC group: the negative control only added with the isotype antibody, with no secondary antibody added for staining; secondary antibody group: the control group added with the isotype antibody and stained with fluorescent secondary antibody. Student's t test was used to compare significant differences between the groups, and p<0.0001 is represented by ****.
With PD-L1 positive MC38 as a platform, the inventors verified whether ADC HE-S2 and the gene-modified anti-PD-L1 THIOMAB retained the original antibody-antigen binding capacity by using a fluorescence activated cell sorting (FACS) technique. In the experiment, ADC HE-S2, anti-PD-L1 antibody (i.e., avelumab as described in Example 2) and anti-PD-L1 THIOMAB (i.e., mutant antibody prepared in Example 2) serving as primary antibodies were incubated with MC38 cells, such that the antibodies could be sufficiently contacted and bind to PD-L1 on the cell surfaces. After washing with PBS, the cells were treated with an FITC-labeled goat anti-human secondary antibody, and incubated in the dark for 30 min to allow the secondary antibody to bind fully to the primary antibodies. Simultaneously, two groups of negative controls were set, wherein one group was marked as a negative control (NC), only isotype control IgG was added to treat the cells, no staining was carried out, and the fluorescent background of the cells was represented; the other group was marked as a secondary antibody, and after addition of isotype control IgG, the secondary antibody was stained with FITC-labeled secondary antibody along with other experimental groups to characterize false positive fluorescence signals generated by non-specific binding of secondary antibodies to the cells. The stained MC38 cells were analyzed on a BD FACSAria™ III flow cytometer, and the strength of FITC fluorescence signals on MC38 cells treated with different antibody-based drugs was detected and compared, so as to characterize the affinity of ADC, THIOMAB and antibodies to PD-L1.

T1 sequence (Q9EP73 19-290): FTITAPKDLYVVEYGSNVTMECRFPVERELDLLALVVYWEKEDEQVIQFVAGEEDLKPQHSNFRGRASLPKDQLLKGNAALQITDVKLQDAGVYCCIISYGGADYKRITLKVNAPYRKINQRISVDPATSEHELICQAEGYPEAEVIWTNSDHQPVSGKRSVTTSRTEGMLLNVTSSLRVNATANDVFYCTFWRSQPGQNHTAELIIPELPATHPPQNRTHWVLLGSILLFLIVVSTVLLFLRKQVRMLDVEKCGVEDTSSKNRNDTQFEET

- MFI: 449
- shift rate of the FITC positive signal relative to the NC group: 36.6%
B1: anti-PD-L1 THIOMAB (avelumab with light chain V205C) (antibody, human IgG1, lambda)
heavy: not shown
light: QSALTQPASVSGSPGQSITISCTGTSSDVGGYNYVSWYQQHPGKAPKLMIYDVSNRPSGVSNRFSGSKSGNTASLTISGLQAEDEADYYCSSYTSSSTRVFGTGTKVTVLGQPKANPTVTLFPPSSEELQANKATLVCLISDFYPGAVTVAWKADGSPVKAGVETTKPSKQSNNKYAASSYLSLTPEQWKSHRSYSCQVTHEGSTCEKTVAPTECS
modifications: engineered cysteine (V205C; Cys 226 of SEQ ID NO: 9) generally capped with a free cysteine in the intact THIOMAB as expressed
notes: also called αPD-L1 THIOMAB LC-V205C

- MFI: 445
- shift rate of the FITC positive signal relative to the NC group: 35.7%
B2: anti-PD-L1 antibody avelumab (antibody, human IgG1, lambda)
heavy: not shown
light: B1 light with C206V
notes: also called MSB0010718C; Bavencio

From US20240252670A1 (TSINGHUA UNIVERSITY, published 2024)
